Test results published in article doi:10.1101/859678 (bioRxiv, 2019).

Target: the molecule itself
Assay: SEC

B1: Arabidopsis thaliana Golgi anti-apoptotic protein 3 (AtGAAP3) (natural protein, UniProt Q9ZQX7-1 1-248, looked up)
chain: MYQWNLPYRKDDVETGVSSRRPLLYPAMHENPELRWGFIRKVYSIIAFQLLATVAVAATVVTVRPIALFFATTGLGLALYIVIIITPLIVLCPLYYYHQKHPVNYLLLGIFTLALAFVVGLTCAFTNGKVILESVILTSVVVLSLTLYTFWAARKGYDFNFLGPFLFGALTVLIFFALIQILFPLGRVSVMIYGCLVSIIFCGYIVYDTDNLIKRHTYDEYIWAAVSLYLDIINLFLYLLTVLRALQR
binding result: binds
